Results from US6794178.

Biological target: microtubules

B1: Bacterially expressed and purified KinI-3 protein (protein)
chain: DCDIPIIQRISHVSGYNYGIPHSCIRQNTSEKQNPWTEMEKIRVCVRKRPLGMREVRRGEINIITVEDKETLLVHEKKEAVDLTQYILQHVFYFDEVFGEACTNQDVYMKTTHPLIQHIFNGGNATCFAYGQTGAGKTYTMIGTHENPGLYALAAKDIFRQLEVSQPRKHLFVWISFYEIYCGQLYDLLNRRKRLFAREDSKHMVQIVGLQELQVDSVELLLEVILKGSKERSTGATGVNADSSRSHAVIQIQIKDSAKRTFGRISFIDLAGSERAADARDSDRQTKMEGAEINQSLLALKECIRALDQEHTHTPFRQSKLTQVLKDSFIGNAKTCMIANISPSHVATEHTLNTLRYADRVKEL
Question: Which results are given for B1?
Answer: microtubule depolymerization (tubulin in supernatant after centrifugation, SDS-PAGE), AL + ATP/MT: Track 3 shows an increase in tubulin in the supernatant that indicates depolymerization in the presence of ATP; microtubule depolymerization (tubulin in supernatant), AL + MT + ADP: No depolymerization was observed ... in the presence of ADP (track 6); microtubule depolymerization (tubulin in supernatant), AL + MT/AMPPNP: No depolymerization was observed ... in the presence of AMP-PNP (track 5); microtubule depolymerization (tubulin in supernatant), AL treated by Apyrase + MT: No depolymerization was observed in the absence of ATP (track 4)
